In PMC3163267, “Structure and Organisation of SinR, the Master Regulator of Biofilm Formation in Bacillus subtilis” (Journal of Molecular Biology, 2011):

T1: SinR (Bacillus subtilis, UniProt P06533 1-111)
T1 sequence: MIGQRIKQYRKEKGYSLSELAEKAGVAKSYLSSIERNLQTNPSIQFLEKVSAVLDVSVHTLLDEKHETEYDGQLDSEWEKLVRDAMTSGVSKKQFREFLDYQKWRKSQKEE

B1: SinR (natural protein, B. subtilis, UniProt P06533 1-111, looked up)
chain: MIGQRIKQYRKEKGYSLSELAEKAGVAKSYLSSIERNLQTNPSIQFLEKVSAVLDVSVHTLLDEKHETEYDGQLDSEWEKLVRDAMTSGVSKKQFREFLDYQKWRKSQKEE
notes: After cleavage with human rhinovirus 3C protease a residual N-terminal Gly-Pro-Ala is expected to remain; Tetramer by SEC-MALLS; also called intact SinR; full-length SinR; not shown: His6, N-terminal, cleaved

Key:
[1] = molecular target: the molecule itself; test: SEC-MALS; SEC-MALLS on Superdex 75 HR 10/30; 25 mM Tris pH 8.5, 200 mM NaCl, 0.5 mM EDTA; 100 µl samples of 1 mg/ml protein or an equimolar mixture of SinR and SinI
SinR [2] = molecular target: T1, SinR; test: fluorescence anisotropy; FA: 10 mM Hepes pH 8.0, 100 mM NaCl, 1 mM DTT, 1 mM EDTA, 5 nM HEX-DNA, 25 C; SPR: 10 mM Hepes pH 8.0, 150 mM NaCl, 3 mM EDTA, 0.05% P20; details: protein: recombinant; tags: N-terminal Gly-Pro-Ala left after 3C cleavage of His6 tag; chain copies: 4; label: 5' HEX on one strand; 22 bp
SinR [3] = molecular target: B1; test: SEC-MALS; SEC-MALLS on Superdex 75 HR 10/30; 25 mM Tris pH 8.5, 200 mM NaCl, 0.5 mM EDTA; 100 µl samples of 1 mg/ml protein or an equimolar mixture of SinR and SinI; details: both partners purified

Binder	stoichiometry N [1]	Kd (SinR [2]) [µM]	stoichiometry N (SinR [3])
LDSEWEKLVRDAMTSGVSKKQFREFLDYQKWRKSQKEE (domain or fragment, B. subtilis, UniProt P06533 74-111, looked up, SinR, Bacillus subtilis, C-terminal domain, residues 74–111; A selenomethionine form was also crystallised; also called C-terminal domain of SinR; not shown: His6, N-terminal, cleaved) [SinR(74–111)]	4	–	–
tandem repeat SinRBM duplex (dsDNA) DNA 1: GTCGTTCTCTCGTTCTCTATAA DNA 2: TTATAGAGAACGAGAGAACGAC	–	3.7	–
single-site SinRBM duplex (dsDNA) DNA 1: AATTTTTCGTTCTTTATAAAAT DNA 2: ATTTTATAAAGAACGAAAAATT	–	2.8	–
B1	4	–	–
SinI (natural protein, B. subtilis, UniProt P23308 1-57, looked up, Cloned into the same modified pET28 vector and cleaved as described for SinR, so a residual N-terminal Gly-Pro-Ala probably remains (surmised); Dimer by SEC-MALLS) MKNAKQEHFELDQEWVELMVEAKEANISPEEIRKYLLLNKKSAHPGPAARSHTVNPF	2	–	1
